Source: paper PMC3483176, “Structural Insight into the Clostridium difficile Ethanolamine Utilisation Microcompartment” (PLoS ONE, 2012)

B1: CD1918, C-terminal His6 tagged (CD1918-His) (natural protein)
chain: MASANALGMIETKGLVGAIEAADAMVKAANVQLVGKEQVGGGLVTVMVRGDVGAVKAATDAGAAAAERVGELISVHVIPRPHFEVDAILPKVSAE
notes: CD1918, EutM homologue, BMC shell protein of the eut operon of Clostridium difficile 630; full length open reading frame amplified from genomic DNA (genome positions 2219567-2219854); Cloned between NcoI and XhoI of pET28b; the XhoI site probably adds Leu-Glu before the His6 tag (surmised); also called EutM; C. difficile EutM homologue; source: E. coli B834 (DE3), purified (HisTrap, Superdex S200 …)
B2: CD1908, C-terminal His6 tagged (CD1908-His) (natural protein, Clostridium difficile 630, UniProt Q187M0 1-116, looked up)
chain: MTEESKQRVIQEYVPGKQVTLAHIIANPNEDIYKKLGLVLDKKDAIGILTITPSEASIIAADVATKASNVSLGFIDRFSGSVVISGDVSSVESALNDVLEVLGNMLNFSSTKITRT
notes: CD1908, EutS homologue, BMC shell protein of the eut operon of Clostridium difficile 630; full length open reading frame amplified from genomic DNA (genome positions 2209853-2210203); Cloned between NcoI and XhoI of pET28b; also called EutS; C. difficile EutS homologue; source: E. coli B834 (DE3), purified (HisTrap, Superdex S200 size exclusion); not shown: His6, C-terminal, kept

Experiments:
[1] = biological target: the molecule itself; test: crystal structure; CD1918-His at 10 mg/ml in Milli-Q H2O, sitting drop, 200 mM Li2SO4, 100 mM phosphate/citrate buffer pH 4.2, 20% (w/v) PEG 1000; space group I 1 2 1; three chains in the asymmetric unit, hexamer by a crystallographic 2-fold axis; oligomerisation states calculated with PISA
[2] = biological target: the molecule itself; test: crystal structure; CD1908-His at 10 mg/ml in Milli-Q H2O, sitting drop, 24% (w/v) PEG 1500, 20% (v/v) glycerol; space group H 3; two molecules in the asymmetric unit, hexamer by the crystallographic 3-fold axis; oligomerisation states calculated with PISA

Protein | stoichiometry N [1] | stoichiometry N [2]
B1 | 6 | –
B2 | – | 6
